Patent US20140371148A1 (AMYLIN PHARMACEUTICALS, published 2014)
Starred links: 1 amine or outer side, 2 acyl side, 3 side chain; linkers in the order of their positions; H or OH if unused. Groups on a side chain read outwards from the residue. No end group written: not given here. 2‑(S)‑cyano pyrrolidyl = 2-(S)-cyano pyrrolidyl group; γGlu = O=C(O)[C@H](CCC(=O)[*:2])N[*:1]; AEEA = NCCOCCOCC(=O)O

T1: endogenously expressed GLP-1 receptor of thyroid c-cell carcinoma line 6-23 (UniProt P32301 22-463)
T1 sequence (looked up): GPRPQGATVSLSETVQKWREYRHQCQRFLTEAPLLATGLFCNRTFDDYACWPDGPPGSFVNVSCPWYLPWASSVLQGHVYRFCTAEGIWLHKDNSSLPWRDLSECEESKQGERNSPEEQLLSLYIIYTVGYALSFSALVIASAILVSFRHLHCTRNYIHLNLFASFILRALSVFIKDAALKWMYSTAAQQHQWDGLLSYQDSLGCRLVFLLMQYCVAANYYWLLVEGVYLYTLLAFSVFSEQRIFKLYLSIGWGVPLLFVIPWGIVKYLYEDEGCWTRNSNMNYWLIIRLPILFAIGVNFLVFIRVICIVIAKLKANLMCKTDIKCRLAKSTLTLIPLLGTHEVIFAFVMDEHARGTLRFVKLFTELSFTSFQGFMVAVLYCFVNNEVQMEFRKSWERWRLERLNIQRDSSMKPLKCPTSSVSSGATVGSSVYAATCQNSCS


Legend:
[1] = biological target: T1, endogenously expressed GLP-1 receptor …; assay: cell-based or functional assay
Recombinant DPP-IV = assay: cell-based or functional assay

| Binder | GLP Cyclase EC50 [1] [nM] | DPP-IV IC50 (Recombinant DPP-IV) [nM] |
| --- | --- | --- |
| HAEGTFTSDVSSYLEGQAAKEFIAWLVKGRG (lisinopril joined at the C-terminus through linker type C9 of FIG. 2) [5547] | 0.4 | – |
| YAEGTFISDYSIAMDKIHQQDFVNWLLAQK (C-terminus extended with Ado-Ado-Lys-N-ε-(2-(S)-cyano pyrrolidyl)) [GIP(1-30)-Ado-Ado-Lys-N-ε-(2-(S)-cyano pyrrolidyl)] | – | 114 |
| YAEGTFISDYSIAMDKIHQQDFVNWLLAQK (N-terminus acylated with γ-L-Glu-(2-(S)-cyano pyrrolidyl)-Ado-Ado) [N-(γ-L-Glu-2-(S)-cyano pyrrolidyl)-Ado-Ado) GIP(1-30)] | – | 64 |
| YAEGTFISDYSIAMDKIHQQDFVNWLLAQK([AEEA-γGlu-2‑(S)‑cyano pyrrolidyl]) [Lys^30 N-ε-(Ado-(γ-L-Glu-2-(S)-cyano pyrrolidyl)) GIP(1-30)] | – | 49 |
| YAEGTFISDYSIALDKIHQQDFVNWLLAQK-{AEEA-Lys(N-ε-(2-(S)-cyano pyrrolidyl))} [[Leu^14] GIP(1-30)-Ado-Lys-N-ε-(2-(S)-cyano pyrrolidyl)] | – | 109 |
| YAEGTFISDYSIAMDKIHQQDFVNWLLAQK (C-terminus extended with Ado-Lys-N-ε-(2-(S)-cyano pyrrolidyl)) [GIP(1-30)-Ado-Lys-N-ε-(2-(S)-cyano pyrrolidyl)] | – | 98 |
